Drawing on article PMC6128213, this text covers most probable rupture force fMP for 1 substance.

In this assay the target is human fibronectin (human) (UniProt P02751). Kind of assay: AFM single molecule force spectroscopy.

For the substance “pilus-1 adhesin RrgA from Streptococcus pneumoniae (natural protein)”, the most probable rupture force fMP worked out at 51.6 pN.
